Data from PMC9482650, “Quantitative fragmentomics allow affinity mapping of interactomes” (Nature Communications, 2022).

T1: MPDZ_2, O75970
T1 sequence (O75970 252-347, limits assumed, looked up): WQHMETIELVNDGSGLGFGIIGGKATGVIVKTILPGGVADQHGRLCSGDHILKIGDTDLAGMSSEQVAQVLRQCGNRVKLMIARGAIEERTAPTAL

T2: NHERF1_2, O14745
T2 sequence (O14745 149-244, limits assumed, looked up): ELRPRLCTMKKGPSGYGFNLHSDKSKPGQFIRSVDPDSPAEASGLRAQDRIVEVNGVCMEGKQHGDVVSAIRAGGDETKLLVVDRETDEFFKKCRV

T3: PDZD11, Q5EBL8
T3 sequence (Q5EBL8 42-139, limits assumed, looked up): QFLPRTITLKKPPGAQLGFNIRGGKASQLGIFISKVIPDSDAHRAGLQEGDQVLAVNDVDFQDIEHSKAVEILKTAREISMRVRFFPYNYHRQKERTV

T4: PDZD2_1, O15018
T4 sequence (O15018 80-192, limits assumed, looked up): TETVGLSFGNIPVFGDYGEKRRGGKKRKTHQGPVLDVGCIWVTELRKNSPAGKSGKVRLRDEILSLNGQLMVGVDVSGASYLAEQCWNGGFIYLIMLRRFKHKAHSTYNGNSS

T5: PDZD2_5, O15018
T5 sequence (O15018 2617-2716, limits assumed, looked up): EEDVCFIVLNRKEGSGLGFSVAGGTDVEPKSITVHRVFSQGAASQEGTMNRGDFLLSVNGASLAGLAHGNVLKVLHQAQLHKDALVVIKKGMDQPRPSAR

T6: PDZD4, Q76G19
T6 sequence (Q76G19 125-224, limits assumed, looked up): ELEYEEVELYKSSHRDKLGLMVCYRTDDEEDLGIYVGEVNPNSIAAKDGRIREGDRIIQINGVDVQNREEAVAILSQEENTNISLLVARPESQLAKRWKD

T7: PDZRN3_2, Q9UPQ7
T7 sequence (Q9UPQ7 414-513, limits assumed, looked up): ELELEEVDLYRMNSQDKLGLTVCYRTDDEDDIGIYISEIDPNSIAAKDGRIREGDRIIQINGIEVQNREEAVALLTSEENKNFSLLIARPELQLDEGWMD

T8: PTPN13_4, Q12923
T8 sequence (Q12923 1783-1878, limits assumed, looked up): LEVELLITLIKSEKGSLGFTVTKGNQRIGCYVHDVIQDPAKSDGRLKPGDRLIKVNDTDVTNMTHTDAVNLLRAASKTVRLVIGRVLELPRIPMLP

T9: SHROOM2, Q13796
T9 sequence (Q13796 21-118, limits assumed, looked up): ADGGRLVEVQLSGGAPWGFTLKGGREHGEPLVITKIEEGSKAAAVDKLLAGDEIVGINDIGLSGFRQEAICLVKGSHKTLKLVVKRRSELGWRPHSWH

T10: SYNPO2L, Q9H987
T10 sequence (Q9H987 1-98, limits assumed, looked up): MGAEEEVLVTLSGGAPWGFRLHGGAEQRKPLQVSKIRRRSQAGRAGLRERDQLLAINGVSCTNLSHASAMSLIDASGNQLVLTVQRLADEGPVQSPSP

T11: TJP3_2, O95049
T11 sequence (O95049 190-282, limits assumed, looked up): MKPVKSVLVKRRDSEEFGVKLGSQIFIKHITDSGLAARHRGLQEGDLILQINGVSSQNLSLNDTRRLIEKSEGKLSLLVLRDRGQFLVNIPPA

T12: USH1C_1, Q9Y6N9
T12 sequence (Q9Y6N9 82-179, limits assumed, looked up): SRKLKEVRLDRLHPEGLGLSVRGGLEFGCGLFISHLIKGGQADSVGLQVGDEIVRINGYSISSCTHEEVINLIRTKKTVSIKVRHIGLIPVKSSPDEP

T13: USH1C_3, Q9Y6N9
T13 sequence (Q9Y6N9 447-547, limits assumed, looked up): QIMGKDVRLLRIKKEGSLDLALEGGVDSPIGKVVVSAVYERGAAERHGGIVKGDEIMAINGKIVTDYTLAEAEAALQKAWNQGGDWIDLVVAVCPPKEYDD


Assays:
Assay in all cases: holdup assay
Design in all cases: key: below the threshold = too weak to quantify, mostly under pKd 3.1 to 4
GRIP2_3, Q9C0E4 = target: GRIP2_3, Q9C0E4
Sequence of GRIP2_3, Q9C0E4 (Q9C0E4 238-339): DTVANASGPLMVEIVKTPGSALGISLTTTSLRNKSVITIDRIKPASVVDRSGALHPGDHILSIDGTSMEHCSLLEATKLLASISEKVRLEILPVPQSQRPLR

MAGI3_2, Q5TCQ9 = target: MAGI3_2, Q5TCQ9
Sequence of MAGI3_2, Q5TCQ9 (Q5TCQ9 398-503): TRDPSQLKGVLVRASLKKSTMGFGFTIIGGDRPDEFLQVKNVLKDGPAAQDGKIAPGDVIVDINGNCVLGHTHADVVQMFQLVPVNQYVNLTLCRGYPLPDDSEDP

DVL2, O14641 = settings: plain residues with an end cap or a label only (N-terminal biotin on a linker: ttds)
Sequence of DVL2, O14641 (O14641 260-359): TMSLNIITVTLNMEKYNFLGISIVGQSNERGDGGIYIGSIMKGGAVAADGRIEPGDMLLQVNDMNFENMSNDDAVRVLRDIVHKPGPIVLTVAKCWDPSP

GRIP2_2, Q9C0E4 = settings: plain residues with an end cap or a label only (N-terminal biotin on a linker: ttds)
Sequence of GRIP2_2, Q9C0E4 (Q9C0E4 137-245): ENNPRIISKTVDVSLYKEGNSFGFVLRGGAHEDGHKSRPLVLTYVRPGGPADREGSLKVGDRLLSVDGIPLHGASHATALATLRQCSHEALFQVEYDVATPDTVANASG

LIMK1, P53667 = settings: plain residues with an end cap or a label only (N-terminal biotin on a linker: ttds)
Sequence of LIMK1, P53667 (P53667 155-268): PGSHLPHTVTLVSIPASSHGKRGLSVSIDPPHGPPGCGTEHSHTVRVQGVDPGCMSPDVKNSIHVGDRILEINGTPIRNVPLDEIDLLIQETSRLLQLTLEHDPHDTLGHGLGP

LMO7, Q8WWI1 = settings: plain residues with an end cap or a label only (N-terminal biotin on a linker: ttds)
Sequence of LMO7, Q8WWI1 (Q8WWI1 1037-1138): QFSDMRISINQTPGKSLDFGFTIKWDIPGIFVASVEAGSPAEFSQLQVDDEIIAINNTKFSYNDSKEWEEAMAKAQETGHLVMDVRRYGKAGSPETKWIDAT

MAGI1_6, Q96QZ7 = settings: plain residues with an end cap or a label only (N-terminal biotin on a linker: ttds)
Sequence of MAGI1_6, Q96QZ7 (Q96QZ7 1146-1238): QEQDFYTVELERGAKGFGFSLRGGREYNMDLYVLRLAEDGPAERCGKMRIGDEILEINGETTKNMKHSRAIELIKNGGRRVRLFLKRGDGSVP

MAGI3_5, Q5TCQ9 = settings: plain residues with an end cap or a label only (N-terminal biotin on a linker: ttds)
Sequence of MAGI3_5, Q5TCQ9 (Q5TCQ9 847-941): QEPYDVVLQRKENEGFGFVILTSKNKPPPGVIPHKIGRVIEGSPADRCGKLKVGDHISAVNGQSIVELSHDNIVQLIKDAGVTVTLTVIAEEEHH

MAGI3_6, Q5TCQ9 = settings: plain residues with an end cap or a label only (N-terminal biotin on a linker: ttds)
Sequence of MAGI3_6, Q5TCQ9 (Q5TCQ9 1014-1103): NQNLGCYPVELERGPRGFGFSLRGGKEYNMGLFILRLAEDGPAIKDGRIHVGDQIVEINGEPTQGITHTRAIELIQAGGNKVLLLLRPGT

MPDZ_2, O75970 = target: T1, MPDZ_2, O75970; settings: plain residues with an end cap or a label only (N-terminal biotin on a linker: ttds)
NHERF1_2, O14745 = target: T2, NHERF1_2, O14745; settings: plain residues with an end cap or a label only (N-terminal biotin on a linker: ttds)
PDZD11, Q5EBL8 = target: T3, PDZD11, Q5EBL8; settings: plain residues with an end cap or a label only (N-terminal biotin on a linker: ttds)
PDZD2_1, O15018 = target: T4, PDZD2_1, O15018; settings: plain residues with an end cap or a label only (N-terminal biotin on a linker: ttds)
PDZD2_5, O15018 = target: T5, PDZD2_5, O15018; settings: plain residues with an end cap or a label only (N-terminal biotin on a linker: ttds)
PDZD4, Q76G19 = target: T6, PDZD4, Q76G19; settings: plain residues with an end cap or a label only (N-terminal biotin on a linker: ttds)
PDZD9, Q8IXQ8 = settings: plain residues with an end cap or a label only (N-terminal biotin on a linker: ttds)
Sequence of PDZD9, Q8IXQ8 (Q8IXQ8 23-120): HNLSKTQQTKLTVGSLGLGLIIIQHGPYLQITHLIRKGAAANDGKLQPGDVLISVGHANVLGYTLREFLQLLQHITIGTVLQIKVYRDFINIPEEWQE

PDZRN3_2, Q9UPQ7 = target: T7, PDZRN3_2, Q9UPQ7; settings: plain residues with an end cap or a label only (N-terminal biotin on a linker: ttds)
PTPN13_4, Q12923 = target: T8, PTPN13_4, Q12923; settings: plain residues with an end cap or a label only (N-terminal biotin on a linker: ttds)
SHROOM2, Q13796 = target: T9, SHROOM2, Q13796; settings: plain residues with an end cap or a label only (N-terminal biotin on a linker: ttds)
SYNPO2L, Q9H987 = target: T10, SYNPO2L, Q9H987; settings: plain residues with an end cap or a label only (N-terminal biotin on a linker: ttds)
TJP3_2, O95049 = target: T11, TJP3_2, O95049; settings: plain residues with an end cap or a label only (N-terminal biotin on a linker: ttds)
USH1C_1, Q9Y6N9 = target: T12, USH1C_1, Q9Y6N9; settings: plain residues with an end cap or a label only (N-terminal biotin on a linker: ttds)
USH1C_3, Q9Y6N9 = target: T13, USH1C_3, Q9Y6N9; settings: plain residues with an end cap or a label only (N-terminal biotin on a linker: ttds)
[1] = plain residues with an end cap or a label only (N-terminal biotin on a linker: ahx)
[2] = plain residues with an end cap or a label only (N-terminal biotin on a linker: ttds)
[3] = plain residues with an end cap or a label only (N-terminal biotin on a linker: gsgsgs; C-terminal amide)

Binder	pKd (DVL2, O14641)	pKd (GRIP2_3, Q9C0E4; [2])	pKd (LIMK1, P53667)	pKd (MAGI1_6, Q96QZ7)	pKd (MAGI3_2, Q5TCQ9; [2])	pKd (MAGI3_5, Q5TCQ9)	pKd (MAGI3_6, Q5TCQ9)	pKd (MPDZ_2, O75970)	pKd (NHERF1_2, O14745)	pKd (PDZD11, Q5EBL8)	pKd (PDZD2_1, O15018)	pKd (PDZD2_5, O15018)	pKd (PDZD4, Q76G19)	pKd (PDZD9, Q8IXQ8)	pKd (PDZRN3_2, Q9UPQ7)	pKd (PTPN13_4, Q12923)	pKd (SHROOM2, Q13796)	pKd (SYNPO2L, Q9H987)	pKd (TJP3_2, O95049)	pKd (USH1C_1, Q9Y6N9)	also measured
HTHSYIETHV [CNKSR2, Q8WXI2]	–	–	–	–	–	–	–	–	–	–	–	–	–	–	–	–	–	–	–	–	pKd (GRIP2_3, Q9C0E4; [1]): below the threshold; pKd (MAGI3_2, Q5TCQ9; [1]): 4.69
SSRTRRETQL [HPV16-E6, P03126]	below the threshold	below the threshold	below the threshold	below the threshold	5.31	3.96	below the threshold	below the threshold	3.89	below the threshold	below the threshold	below the threshold	below the threshold	4.06	below the threshold	below the threshold	below the threshold	below the threshold	below the threshold	below the threshold	pKd (GRIP2_2, Q9C0E4): below the threshold; pKd (LMO7, Q8WWI1): 4.15; pKd (USH1C_3, Q9Y6N9): below the threshold
SVWLRKETRV [CYSLTR2, Q9NS75]	below the threshold	below the threshold	below the threshold	below the threshold	5.75	below the threshold	below the threshold	below the threshold	below the threshold	below the threshold	below the threshold	below the threshold	below the threshold	below the threshold	below the threshold	below the threshold	4.35	below the threshold	below the threshold	below the threshold	pKd (GRIP2_2, Q9C0E4): below the threshold; pKd (LMO7, Q8WWI1): below the threshold; pKd (USH1C_3, Q9Y6N9): below the threshold
RSLEEEESQL [GRASP, Q7Z6J2]	below the threshold	below the threshold	4.27	below the threshold	3.81	below the threshold	4.14	below the threshold	below the threshold	below the threshold	below the threshold	4.22	below the threshold	below the threshold	below the threshold	below the threshold	below the threshold	below the threshold	below the threshold	below the threshold	pKd (GRIP2_2, Q9C0E4): below the threshold; pKd (LMO7, Q8WWI1): 4.14; pKd (USH1C_3, Q9Y6N9): below the threshold
VLRLQSETSV [VANGL1, Q8TAA9]	–	below the threshold	–	–	5.14	–	–	–	–	–	–	–	–	–	–	–	–	–	–	–	–
TEAKLTETNA [MYO18A, Q92614]	–	–	–	–	–	–	–	–	–	–	–	–	–	–	–	–	–	–	–	–	pKd (GRIP2_3, Q9C0E4; [1]): below the threshold; pKd (MAGI3_2, Q5TCQ9; [1]): below the threshold
TVASEKESVM [SLC1A5, Q15758]	–	below the threshold	–	–	below the threshold	–	–	–	–	–	–	–	–	–	–	–	–	–	–	–	–
GQDSREETQL [KCNT2, Q6UVM3]	–	below the threshold	–	–	3.91	–	–	–	–	–	–	–	–	–	–	–	–	–	–	–	–
IYVPEAQTRL [DLGAP4, Q9Y2H0]	–	below the threshold	–	–	below the threshold	–	–	–	–	–	–	–	–	–	–	–	–	–	–	–	–
ERKLSSESQV [LRP4, O75096]	–	below the threshold	–	–	5.17	–	–	–	–	–	–	–	–	–	–	–	–	–	–	–	–
SRPQRTQTQV [HPV67-E6, A4U7F2]	below the threshold	below the threshold	below the threshold	below the threshold	5.42	below the threshold	below the threshold	below the threshold	below the threshold	below the threshold	below the threshold	below the threshold	below the threshold	below the threshold	below the threshold	below the threshold	below the threshold	below the threshold	below the threshold	below the threshold	–
IDNDTESTAL [ARHGAP17, Q68EM7]	–	below the threshold	–	–	below the threshold	–	–	–	–	–	–	–	–	–	–	–	–	–	–	–	–
TLSLTDSSVDGIPPYR [AXIN1_int, O15169]	–	–	–	–	–	–	–	–	–	–	–	–	–	–	–	–	–	–	–	–	pKd (GRIP2_3, Q9C0E4; [3]): below the threshold; pKd (MAGI3_2, Q5TCQ9; [3]): below the threshold
